In IntAct's records for PubMed 20023629:

Molecular target: mcl1_human MCL1 (UniProt Q07820)
Sequence (Q07820 whole entry): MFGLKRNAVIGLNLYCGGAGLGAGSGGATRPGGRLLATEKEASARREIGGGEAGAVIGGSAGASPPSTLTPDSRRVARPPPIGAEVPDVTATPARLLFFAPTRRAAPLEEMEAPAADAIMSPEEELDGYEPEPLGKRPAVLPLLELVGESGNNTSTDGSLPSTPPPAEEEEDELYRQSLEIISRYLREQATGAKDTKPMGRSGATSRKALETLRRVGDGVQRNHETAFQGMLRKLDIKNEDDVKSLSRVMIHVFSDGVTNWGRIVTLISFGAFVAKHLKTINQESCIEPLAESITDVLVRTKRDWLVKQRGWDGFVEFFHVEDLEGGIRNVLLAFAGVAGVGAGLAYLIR

Ubiquitin carboxyl-terminal hydrolase 9X (Homo sapiens), Q93008 C1566S
effect of a mutation on the interaction: disrupting interaction
